What all share (test): fluorescence polarisation
(Fluorescence polarisation rises when a labelled molecule tumbles more slowly, as on binding a larger partner.)

The target in assay [1] is Bovine full-length RIα C16A (bovine).
Assay [2] deals with Bovine full-length RIα H23A (bovine).
Assay [3] addresses Bovine full-length RIα C37A (bovine).
The target in assay [4] is Bovine full-length RIα Y19A (bovine).
The target of assay [5] is Bovine full-length RIα, wild type (bovine, UniProt P00514 1-380).
Chain of Bovine full-length RIα, wild type (P00514 whole entry): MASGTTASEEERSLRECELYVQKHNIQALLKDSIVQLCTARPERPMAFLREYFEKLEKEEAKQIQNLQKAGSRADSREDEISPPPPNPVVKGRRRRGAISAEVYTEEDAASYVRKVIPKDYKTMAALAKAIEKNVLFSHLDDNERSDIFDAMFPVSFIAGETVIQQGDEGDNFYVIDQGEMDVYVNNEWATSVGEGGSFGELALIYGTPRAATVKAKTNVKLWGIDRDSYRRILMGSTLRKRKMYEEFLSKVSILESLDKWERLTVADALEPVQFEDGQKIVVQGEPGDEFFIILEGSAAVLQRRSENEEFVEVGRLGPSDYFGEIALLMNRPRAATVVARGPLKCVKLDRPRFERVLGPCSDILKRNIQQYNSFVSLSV

The values that follow come from PMC3090270 (Structure (London, England : 1993), 2010).

For orientation: Kd means the concentration at which binding is half-saturated. Low values mean higher affinity, high ones lower affinity.

B1: D-AKAP2 AKB peptide (residues 623-650), last residue changed to Cys, fluorescently labeled (peptide)
chain: VQGNTDEAQEELAWKIAKMIVSDVMQQC
modifications: fluorescin-5-maleimide or tetramethylrhodamine-5-maleimide on the Cys that replaces the last residue
Consider B1, for which the Kd was 126 nM in assay [1]; 198 nM in assay [2]; 745 nM in assay [3]; 1330 nM in assay [4]; 48 nM in assay [5].
